The values below come from patent US20230250157A1 (published 2023).

B1: M8a-7 (antibody, V domains shown)
VH: QAYLQQSGAEMVRPGASVKMSCKASGYTFNNYNMHWVKQTPSQGLEWIGGFYPGNDDTAYSQKFKGKATLTVDKSSSTAFMHLSSLTSEDSAVYFCARSLGRYYAMDYWGQGTSVTVSS
VL: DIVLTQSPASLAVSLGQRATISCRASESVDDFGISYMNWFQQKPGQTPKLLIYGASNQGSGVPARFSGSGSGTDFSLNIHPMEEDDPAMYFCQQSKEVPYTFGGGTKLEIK
B2: M8a-15 (antibody, V domains shown)
VH: QVQLQQSGPELARPGASVKLSCRASGYTVTSFGLSWMKQRTGQGLEWIGEIYPTSKNTYYNDKFRTKATLTADKSSSTAYMELRSLTSEDSAVYFCVLYDYFDYWGQGTTLTVSS
VL: QIVLTQSPAIMSASPGEKVTISCSASSSVSYMYWYQQKTGSSPKPWIYRTSNLASGVPVRFSGSGSGTSYSLTISSMEAEDAATYYCQQYQSYPRTFGGGTKLEIK
B3: M8a-29 (antibody, V domains shown)
VH: EVQLQQSVAELVRPGASVKLSCTASGFNIKNTYMHWVKQRPEQGLEWIGRIDPSIDHTRYAPKFQGKAVITAFTSSNTAYLQLSSLTSEDTAIYYCAREGGGNYPYYYAIDYWGQGTSVTVSS
VL: DIVMTQAAFSNPVTLGTSASISCRSTKSLLHSNGITYLYWYLQKPGQSPQLLIYQMSNLASGVPDRFSSSGSGTDFTLRISRVEAEDVGVYYCAQNLELPYTFGGGTKLEIK
B4: M8a-25 (antibody, V domains shown)
VH: B3 VH
VL: DIQMTQSSSSFSVSLGDRVTITCKASEDIYIRLAWYQQRPGNAPRLLISNAISLETGVPSRFSGSGFGKDHTLSITSLQTEDVATYYCQQYWSTPWTFGGGTKLEIK
B5: M8a-30 (antibody, V domains shown)
VH: QVHLQQSGPELVKPGASVKISCKASGYGFSSSWMNWVKQRPGKGLEWIGRIYPGDGDTNYNDKFQGKATLTADRSSSTAYMHLTSLTSADSAVYFCARSLLYSFDYWGQGTTLTVSS
VL: DVVVTQTPLSLPVSFGDQVSISCRSSQSLAGSYGHTYLSWYLHKSGQSPQLLIYGISNRFSGVPDRFSGSGSGTDFTLKISTIKPEDLGMYYCLQGTHQPLTFGAGTKLELK
B6: M8a-11 (antibody, V domains shown)
VH: EVQLQQSGPELVKPGASVKIPCKASGYTFTDYNMDWVKQSHEKSLEWIGEIDPNNGDTIYNQKFKGKASLTVDKSSSTAYMELRSLTSEDTAVYYCAKRGYYGSSLWWYFDVWGTGTTVTVSS
VL: B4 VL with F67S, H71Y

Substitutions are numbered along the chain they refer to. Some results are limits rather than exact numbers.

For the first test, the target named is SARS-CoV-2 Beta RBD (SARS-CoV-2 Beta). Put plainly: ELISA. (ELISA stands for enzyme-linked immunosorbent assay.)
For B1, the EC50 (commonly the concentration at which the effect is half-maximal) was more than 10 µg/mL.

In the case of B2, the EC50 is more than 10 µg/mL.

On to B3, for which the EC50 is more than 10 µg/mL.

As for B4, the EC50 is more than 10 µg/mL.

On to B5, for which the EC50 is more than 10 µg/mL.

Molecule B6 came in with a 50% effective concentration (EC50) of more than 10 µg/mL.

The target of a further test is SARS-CoV-2 Delta RBD (SARS-CoV-2 Delta). Put plainly: ELISA.
With B1, the EC50 was more than 10 µg/mL.

Take B2: the EC50 is more than 10 µg/mL.

As for B3, the EC50 is more than 10 µg/mL.

Molecule B4 returned an EC50 of more than 10 µg/mL.

B6 had an EC50 of more than 10 µg/mL.

In a further test the target is SARS-CoV-2 Omicron BA.2 RBD (SARS-CoV-2 Omicron BA.2). As to the kind of experiment: ELISA.
B1 gave a concentration for a half-maximal effect (EC50) of more than 10 µg/mL.

On to B2, for which the EC50 is more than 10 µg/mL.

Molecule B3 gave an EC50 of more than 10 µg/mL.

Molecule B4 came in with an EC50 of more than 10 µg/mL.

The molecule B5 returned an EC50 of more than 10 µg/mL.

B6 returned an EC50 of more than 10 µg/mL.

The next test has as its target SARS-CoV-2 Omicron BA.1 RBD (SARS-CoV-2 Omicron BA.1). As to the kind of experiment: ELISA.
As for B1, the EC50 was more than 10 µg/mL.

In turn, B2 displayed an EC50 of more than 10 µg/mL.

With B3, the EC50 was more than 10 µg/mL.

B4 showed a concentration giving a half-maximal response (EC50) of more than 10 µg/mL.

The molecule B5 registered an EC50 of more than 10 µg/mL.

As to B6, the EC50 is more than 10 µg/mL.
